In article PMC6300606:

Legend:
[1] = target: TssG (EAEC, residues 64–366) (enteroaggregative Escherichia coli (EAEC)); assay: cryo-EM structure; TssKSN–TssF–TssG complex co-expressed in E. coli and purified (Ni-NTA, Superose 6); 0.12 mg/ml in 20 mM Tris-HCl pH 7.8, 150 mM NaCl; single-particle cryoEM, 3.7 Å overall
[2] = target: TssKSN (shoulder and neck domains of EAEC TssK, residues 1–315) (enteroaggregative Escherichia coli (EAEC)); assay: as above

Substance	stoichiometry N (TssF per TssG) [1]	stoichiometry N [2]
TssF (EAEC, full length) (natural protein)	2	–
TssKSN (shoulder and neck domains of EAEC TssK, residues 1–315) (domain or fragment)	–	3
